Ki data for 4 molecules are collected here from patent publication US20210032299A1 (Eli Lilly, published 2021).

Starred links: 1 amine or outer side, 2 acyl side, 3 side chain; linkers in the order of their positions; H or OH if unused. Non-standard residues stand in square brackets, D forms with d. Groups on a side chain read outwards from the residue. No end group written: not given here. *: point of attachment. C20 diacid = O=C(O)CCCCCCCCCCCCCCCCCCC(=O)*; C18 diacid = O=C(O)CCCCCCCCCCCCCCCCC(=O)*; αMePhe(2-F) = C[C@](N)(Cc1ccccc1F)C(=O)O; γGlu = O=C(O)[C@H](CCC(=O)[*:2])N[*:1]; AEEA = NCCOCCOCC(=O)O; Aib = CC(C)(N)C(=O)O

The target of assay [1] is T1, human glucose-dependent insulinotropic polypeptide (GIP) receptor (human, UniProt P48546 22-466).
T1 construct: whole, on cells; Assayed as crude membranes of stably transfected CHO cells; also called hGIPR; human GIP receptor
T1 sequence (looked up): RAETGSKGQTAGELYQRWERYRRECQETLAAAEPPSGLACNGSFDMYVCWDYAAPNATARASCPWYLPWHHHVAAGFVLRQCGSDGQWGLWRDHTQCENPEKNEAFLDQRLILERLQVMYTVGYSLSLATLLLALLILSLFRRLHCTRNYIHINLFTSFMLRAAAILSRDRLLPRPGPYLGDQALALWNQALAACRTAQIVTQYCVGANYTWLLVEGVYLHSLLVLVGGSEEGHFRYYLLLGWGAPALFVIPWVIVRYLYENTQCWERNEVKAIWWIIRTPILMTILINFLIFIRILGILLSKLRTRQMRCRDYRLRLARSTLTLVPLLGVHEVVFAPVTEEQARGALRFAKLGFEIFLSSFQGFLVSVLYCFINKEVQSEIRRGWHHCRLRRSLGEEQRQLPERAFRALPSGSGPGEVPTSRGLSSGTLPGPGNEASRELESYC
The assay can be described thus: SPA, displacement of [125I]-GIP from hGIPR membranes, 0.1% bacitracin. In general terms: Loss of bound radioactivity is the signal in a displacement assay; it reports binding, not function.

Another assay deals with T2, human GLP-1 receptor (human, UniProt P43220 24-463).
T2 construct: whole, on cells; Assayed as crude membranes of stably transfected HEK293 cells; also called hGLP1R; hGLP-1R
The assay can be described thus: SPA, displacement of [125I]-GLP-1 from hGLP-1R membranes, 0.1% bacitracin. Put shortly: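 Binding buffer: 25 mM HEPES pH 7.4, 2.5 mM CaCl₂, 1 mM MgCl₂, 0.1% bacitracin, 0.003% Tween-20, protease inhibitors without EDTA. Four-parameter nonlinear regression; Kᵢ given as geometric mean ± SEM, n = independent replicates run on different days.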

In the next assay the target is T3, human glucagon receptor (human, UniProt P47871 26-477).
T3 construct: whole, on cells; Assayed as crude membranes of stably transfected HEK293 cells; also called hGcgR; GcgR
The assay can be described thus: SPA, displacement of [125I]-Gcg from hGcgR membranes, 0.1% bacitracin. Put shortly: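 Binding buffer: 25 mM HEPES pH 7.4, 2.5 mM CaCl₂, 1 mM MgCl₂, 0.003% Tween-20, protease inhibitors without EDTA. Counted by scintillation after 12 h incubation/settling at room temperature. Four-parameter nonlinear fit; Kᵢ given as geometric mean ± SEM of independent replicates run on different days.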

T3 sequence (P47871 26-477): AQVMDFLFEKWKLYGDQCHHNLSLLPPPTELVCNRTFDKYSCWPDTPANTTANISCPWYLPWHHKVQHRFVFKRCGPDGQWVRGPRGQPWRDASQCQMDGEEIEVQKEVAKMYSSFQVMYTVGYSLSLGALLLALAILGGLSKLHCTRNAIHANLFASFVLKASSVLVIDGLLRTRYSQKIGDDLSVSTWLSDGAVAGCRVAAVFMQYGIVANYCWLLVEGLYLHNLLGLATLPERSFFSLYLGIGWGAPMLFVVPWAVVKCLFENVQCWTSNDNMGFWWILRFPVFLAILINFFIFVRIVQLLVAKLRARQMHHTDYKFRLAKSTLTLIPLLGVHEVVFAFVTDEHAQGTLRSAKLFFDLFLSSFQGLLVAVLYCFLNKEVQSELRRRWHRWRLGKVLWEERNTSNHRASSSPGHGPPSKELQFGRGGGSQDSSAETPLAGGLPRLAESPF

B1: Example 30 (peptide)
peptide: Ac-[dY]AEGT[αMePhe(2-F)]ISDYSIALDKK([AEEA-AEEA-γGlu-C18 diacid])HQ[Aib]EFVNYLLAGGPSSGAPPPS-NH2
SMILES: CC[C@H](C)[C@H](NC(=O)[C@H](CO)NC(=O)[C@H](Cc1ccc(O)cc1)NC(=O)[C@H](CC(=O)O)NC(=O)[C@H](CO)NC(=O)[C@@H](NC(=O)[C@](C)(Cc1ccccc1F)NC(=O)[C@@H](NC(=O)CNC(=O)[C@H](CCC(=O)O)NC(=O)[C@H](C)NC(=O)[C@@H](Cc1ccc(O)cc1)NC(C)=O)[C@@H](C)O)[C@@H](C)CC)C(=O)N[C@@H](C)C(=O)N[C@@H](CC(C)C)C(=O)N[C@@H](CC(=O)O)C(=O)N[C@@H](CCCCN)C(=O)N[C@@H](CCCCNC(=O)COCCOCCNC(=O)COCCOCCNC(=O)CC[C@H](NC(=O)CCCCCCCCCCCCCCCCC(=O)O)C(=O)O)C(=O)N[C@@H](Cc1c[nH]cn1)C(=O)N[C@@H](CCC(N)=O)C(=O)NC(C)(C)C(=O)N[C@@H](CCC(=O)O)C(=O)N[C@@H](Cc1ccccc1)C(=O)N[C@H](C(=O)N[C@@H](CC(N)=O)C(=O)N[C@@H](Cc1ccc(O)cc1)C(=O)N[C@@H](CC(C)C)C(=O)N[C@@H](CC(C)C)C(=O)N[C@@H](C)C(=O)NCC(=O)NCC(=O)N1CCC[C@H]1C(=O)N[C@@H](CO)C(=O)N[C@@H](CO)C(=O)NCC(=O)N[C@@H](C)C(=O)N1CCC[C@H]1C(=O)N1CCC[C@H]1C(=O)N1CCC[C@H]1C(=O)N[C@@H](CO)C(N)=O)C(C)C
As usually defined, the Ki is a dissociation constant, usually derived from enzyme kinetics or from competition with a known ligand. Low values mean tighter binding, high ones weaker binding. Regarding B1, the Ki amounted to 0.037 nM in assay [1], 26.5 nM with human GLP-1 receptor and 407 nM with human glucagon receptor.

B2: Example 36 (peptide)
peptide: Y[Aib]EGT[αMePhe(2-F)]ISDYSIALDKK([AEEA-AEEA-γGlu-C20 diacid])HQ[Aib]DFVEYLLETGPSSGAPPPS-NH2
modifications: N-terminus assumed
SMILES: CC[C@H](C)[C@H](NC(=O)[C@H](CO)NC(=O)[C@H](Cc1ccc(O)cc1)NC(=O)[C@H](CC(=O)O)NC(=O)[C@H](CO)NC(=O)[C@@H](NC(=O)[C@](C)(Cc1ccccc1F)NC(=O)[C@@H](NC(=O)CNC(=O)[C@H](CCC(=O)O)NC(=O)C(C)(C)NC(=O)[C@@H](N)Cc1ccc(O)cc1)[C@@H](C)O)[C@@H](C)CC)C(=O)N[C@@H](C)C(=O)N[C@@H](CC(C)C)C(=O)N[C@@H](CC(=O)O)C(=O)N[C@@H](CCCCN)C(=O)N[C@@H](CCCCNC(=O)COCCOCCNC(=O)COCCOCCNC(=O)CC[C@H](NC(=O)CCCCCCCCCCCCCCCCCCC(=O)O)C(=O)O)C(=O)N[C@@H](Cc1c[nH]cn1)C(=O)N[C@@H](CCC(N)=O)C(=O)NC(C)(C)C(=O)N[C@@H](CC(=O)O)C(=O)N[C@@H](Cc1ccccc1)C(=O)N[C@H](C(=O)N[C@@H](CCC(=O)O)C(=O)N[C@@H](Cc1ccc(O)cc1)C(=O)N[C@@H](CC(C)C)C(=O)N[C@@H](CC(C)C)C(=O)N[C@@H](CCC(=O)O)C(=O)N[C@H](C(=O)NCC(=O)N1CCC[C@H]1C(=O)N[C@@H](CO)C(=O)N[C@@H](CO)C(=O)NCC(=O)N[C@@H](C)C(=O)N1CCC[C@H]1C(=O)N1CCC[C@H]1C(=O)N1CCC[C@H]1C(=O)N[C@@H](CO)C(N)=O)[C@@H](C)O)C(C)C
B2: the inhibitory constant (Ki) is 0.0683 nM in assay [1], 393 nM in the assay with human GLP-1 receptor and 201 nM with human glucagon receptor.

B3: Example 40 (peptide)
peptide: Y[Aib]EGT[αMePhe(2-F)]ISDYSIALDKK([AEEA-AEEA-γGlu-C20 diacid])HQ[Aib]DFVEWLLETGPSSGAPPPS-NH2
modifications: N-terminus assumed
SMILES: CC[C@H](C)[C@H](NC(=O)[C@H](CO)NC(=O)[C@H](Cc1ccc(O)cc1)NC(=O)[C@H](CC(=O)O)NC(=O)[C@H](CO)NC(=O)[C@@H](NC(=O)[C@](C)(Cc1ccccc1F)NC(=O)[C@@H](NC(=O)CNC(=O)[C@H](CCC(=O)O)NC(=O)C(C)(C)NC(=O)[C@@H](N)Cc1ccc(O)cc1)[C@@H](C)O)[C@@H](C)CC)C(=O)N[C@@H](C)C(=O)N[C@@H](CC(C)C)C(=O)N[C@@H](CC(=O)O)C(=O)N[C@@H](CCCCN)C(=O)N[C@@H](CCCCNC(=O)COCCOCCNC(=O)COCCOCCNC(=O)CC[C@H](NC(=O)CCCCCCCCCCCCCCCCCCC(=O)O)C(=O)O)C(=O)N[C@@H](Cc1c[nH]cn1)C(=O)N[C@@H](CCC(N)=O)C(=O)NC(C)(C)C(=O)N[C@@H](CC(=O)O)C(=O)N[C@@H](Cc1ccccc1)C(=O)N[C@H](C(=O)N[C@@H](CCC(=O)O)C(=O)N[C@@H](Cc1c[nH]c2ccccc12)C(=O)N[C@@H](CC(C)C)C(=O)N[C@@H](CC(C)C)C(=O)N[C@@H](CCC(=O)O)C(=O)N[C@H](C(=O)NCC(=O)N1CCC[C@H]1C(=O)N[C@@H](CO)C(=O)N[C@@H](CO)C(=O)NCC(=O)N[C@@H](C)C(=O)N1CCC[C@H]1C(=O)N1CCC[C@H]1C(=O)N1CCC[C@H]1C(=O)N[C@@H](CO)C(N)=O)[C@@H](C)O)C(C)C
As to B3, the inhibition constant (Ki) was determined as 0.0594 nM in assay [1], 302 nM in the assay with human GLP-1 receptor and 50.9 nM in the assay with human glucagon receptor.

B4: Example 37 (peptide)
peptide: Y[Aib]EGT[αMePhe(2-F)]ISDYSIALDKK([AEEA-AEEA-γGlu-C20 diacid])HQ[Aib]DFVEYLLEGGPSSGAPPPS-NH2
modifications: N-terminus assumed
SMILES: CC[C@H](C)[C@H](NC(=O)[C@H](CO)NC(=O)[C@H](Cc1ccc(O)cc1)NC(=O)[C@H](CC(=O)O)NC(=O)[C@H](CO)NC(=O)[C@@H](NC(=O)[C@](C)(Cc1ccccc1F)NC(=O)[C@@H](NC(=O)CNC(=O)[C@H](CCC(=O)O)NC(=O)C(C)(C)NC(=O)[C@@H](N)Cc1ccc(O)cc1)[C@@H](C)O)[C@@H](C)CC)C(=O)N[C@@H](C)C(=O)N[C@@H](CC(C)C)C(=O)N[C@@H](CC(=O)O)C(=O)N[C@@H](CCCCN)C(=O)N[C@@H](CCCCNC(=O)COCCOCCNC(=O)COCCOCCNC(=O)CC[C@H](NC(=O)CCCCCCCCCCCCCCCCCCC(=O)O)C(=O)O)C(=O)N[C@@H](Cc1c[nH]cn1)C(=O)N[C@@H](CCC(N)=O)C(=O)NC(C)(C)C(=O)N[C@@H](CC(=O)O)C(=O)N[C@@H](Cc1ccccc1)C(=O)N[C@H](C(=O)N[C@@H](CCC(=O)O)C(=O)N[C@@H](Cc1ccc(O)cc1)C(=O)N[C@@H](CC(C)C)C(=O)N[C@@H](CC(C)C)C(=O)N[C@@H](CCC(=O)O)C(=O)NCC(=O)NCC(=O)N1CCC[C@H]1C(=O)N[C@@H](CO)C(=O)N[C@@H](CO)C(=O)NCC(=O)N[C@@H](C)C(=O)N1CCC[C@H]1C(=O)N1CCC[C@H]1C(=O)N1CCC[C@H]1C(=O)N[C@@H](CO)C(N)=O)C(C)C
For the molecule B4, the figures for the inhibition constant Ki (in assay [1]; with human GLP-1 receptor; in the assay with human glucagon receptor) were 0.026 nM, 83.9 nM and 51.4 nM, respectively.
